These results are taken from article PMC7105311, “Structure and function of Bs164 β-mannosidase from Bacteroides salyersiae the founding member of glycoside hydrolase family GH164” (The Journal of Biological Chemistry, 2019).

In the experiment the target is Bs164 β-mannosidase from Bacteroides salyersiae CL02T12C01 (His6 tag removed) (Bacteroides salyersiae CL02T12C01). In words: SEC-MALS; Superdex S200 10/300, 80 mM MES (pH 5.5), 200 mM NaCl, room temperature (20 ± 2 °C), 100 μl injected at 5 mg/ml. For orientation: SEC sorts molecules by how far they enter the pores of the column.

On to “Bs164 β-mannosidase from Bacteroides salyersiae CL02T12C01 (His6 tag removed) (enzyme)”, for which the stoichiometry N was 3.

What is called stoichiometry N is the number of molecules, sites or subunits per partner or assembly.
